For one substance, IC50 of sCD4 for inhibition of infection of CD4+CCR5+ Cf2Th cells by recombinant HIV-1(YU2), luciferase activity and IC50 of sCD4 for inhibition of infection of CD4+CCR5+ Cf2Th cells by recombinant HIV-1(AD8), luciferase activity results are on record in PMC2655723.

The target in assay [1] is Full-length HIV-1 YU2 envelope glycoproteins (HIV-1, strain YU2) (UniProt P35961).
In assay [2] the target is HIV-1 AD8 envelope glycoproteins (HIV-1, strain AD8).

On to “Four-domain soluble CD4 (domain or fragment)”, for which the IC50 of sCD4 for inhibition of infection of CD4+CCR5+ Cf2Th cells by recombinant HIV-1(YU2), luciferase activity in assay [1] amounted to 12 nM. For the same substance, the IC50 of sCD4 for inhibition of infection of CD4+CCR5+ Cf2Th cells by recombinant HIV-1(AD8), luciferase activity in assay [2] came to 80 nM.
